This note sets out measurements from patent US20120122214A1.

The test deals with bovine serum albumin (bovine) (UniProt P02769). Description: flow cytometry; iPS-MP in suspension with control fluorescent particles coated with only albumin, 37° C., 90 minutes. On the technique in general: A flow cytometer gives signals particle by particle.
bovine serum albumin (bovine), sequence (P02769 25-607 limits assumed): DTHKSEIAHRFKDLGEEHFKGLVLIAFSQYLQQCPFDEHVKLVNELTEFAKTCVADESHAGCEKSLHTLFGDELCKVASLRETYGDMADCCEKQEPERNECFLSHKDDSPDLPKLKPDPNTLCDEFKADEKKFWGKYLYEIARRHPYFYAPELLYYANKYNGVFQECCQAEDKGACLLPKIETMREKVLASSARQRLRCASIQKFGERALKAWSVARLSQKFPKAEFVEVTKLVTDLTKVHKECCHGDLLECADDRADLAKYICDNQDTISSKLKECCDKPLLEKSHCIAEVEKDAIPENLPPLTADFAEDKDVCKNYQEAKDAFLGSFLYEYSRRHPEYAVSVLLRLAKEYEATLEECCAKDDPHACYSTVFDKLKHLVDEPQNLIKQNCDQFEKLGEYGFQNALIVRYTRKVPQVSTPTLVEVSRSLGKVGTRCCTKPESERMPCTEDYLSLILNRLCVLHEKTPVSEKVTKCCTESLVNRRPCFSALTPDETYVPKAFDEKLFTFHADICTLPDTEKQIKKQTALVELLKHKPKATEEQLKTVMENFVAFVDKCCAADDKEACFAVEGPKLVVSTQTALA

The substance “single-chain antibody (scFv) recognizing human β-amyloid peptide, derived from mouse hybridoma clone 3D6, fused to mouse IgG2a Fc portion and mouse Fc receptor (FcγRI) trans-cell membrane-cytoplasm portion, expressed on iPS-MP” had a mean fluorescence intensity of 781 and a percent of cells bound to the beads of 25.5%.
